How the values were obtained:
CH505w136.B18D8gp120 = assay: ELISA
CH505.M11D8gp120/293F = assay: ELISA
CH505.TF mutant gp120 M6 = molecular target: T1, CH505.TF mutant gp120 M6 (HIV-1); assay: ELISA
T1 construct: domain: gp120

CH505.M7D8gp120/293F = assay: ELISA
[1] = molecular target: T2, CH505.TF mutant gp120 M20 (HIV-1); assay: ELISA
T2 construct: domain: gp120

CH505.M21D8gp120/293F = assay: ELISA
CH505.M5D8gp120293F = assay: ELISA
CH505.M19D8gp120 = assay: ELISA
CH505.M10D8gp120 = assay: ELISA
CH505.TF mutant gp120 M8 = molecular target: T3, CH505.TF mutant gp120 M8 (HIV-1); assay: ELISA
T3 construct: domain: gp120

CH505.M9D8gp120/293F = assay: ELISA
[2] = molecular target: T4, HIV-1 CH505 transmitted/founder gp120 Env (HIV-1); assay: competition ELISA, blocking of CH106 binding to gp120
T4 construct: domain: gp120; also called CH505.TF gp120; CH505 TF gp120 Env

RNP (ribonucleoprotein) [3] = molecular target: T5, RNP (ribonucleoprotein); assay: AtheNA, Ab 6.25 ug/ml
T5 construct: Protein-RNA complex

SSA [4] = molecular target: T6, SSA; assay: AtheNA, Ab 6.25 ug/ml
T6 construct: also called SSA (Ro)

Scl-70 [5] = molecular target: T7, Scl-70 (UniProt P11387 1-765); assay: AtheNA, Ab 6.25 ug/ml
T7 sequence: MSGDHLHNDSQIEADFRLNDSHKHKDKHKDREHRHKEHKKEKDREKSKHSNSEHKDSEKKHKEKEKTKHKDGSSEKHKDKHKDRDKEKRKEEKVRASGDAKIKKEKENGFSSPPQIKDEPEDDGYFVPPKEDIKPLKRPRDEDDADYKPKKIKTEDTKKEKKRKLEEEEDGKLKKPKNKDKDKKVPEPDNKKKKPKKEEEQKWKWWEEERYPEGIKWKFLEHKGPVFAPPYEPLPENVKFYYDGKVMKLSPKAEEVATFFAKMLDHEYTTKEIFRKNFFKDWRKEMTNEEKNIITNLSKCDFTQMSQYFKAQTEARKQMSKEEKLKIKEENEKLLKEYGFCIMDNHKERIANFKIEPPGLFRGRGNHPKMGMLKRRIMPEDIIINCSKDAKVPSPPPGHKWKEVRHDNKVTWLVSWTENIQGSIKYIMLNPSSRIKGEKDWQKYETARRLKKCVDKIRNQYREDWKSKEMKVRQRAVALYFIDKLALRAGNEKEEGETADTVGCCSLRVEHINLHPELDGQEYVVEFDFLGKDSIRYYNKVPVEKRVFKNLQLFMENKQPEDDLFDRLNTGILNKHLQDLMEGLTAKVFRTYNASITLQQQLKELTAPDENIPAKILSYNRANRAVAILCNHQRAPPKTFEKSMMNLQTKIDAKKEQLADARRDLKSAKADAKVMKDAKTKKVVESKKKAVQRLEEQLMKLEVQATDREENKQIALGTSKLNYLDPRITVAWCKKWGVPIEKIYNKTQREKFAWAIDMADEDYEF

Histones [6] = molecular target: T8, Histones; assay: AtheNA, Ab 6.25 ug/ml
T8 construct: Mixture of proteins

Sm (Smith antigen) [7] = molecular target: T9, Sm (Smith antigen); assay: AtheNA, Ab 6.25 ug/ml
T9 construct: Protein complex

CH505w020.14D8gp120 = molecular target: T10, CH505w020.14D8gp120; assay: ELISA
T10 construct: also called CH505w20.14 gp120

CH0505_CON D7gp120/293i = assay: ELISA
RNP (ribonucleoprotein) [8] = molecular target: T5, RNP (ribonucleoprotein); assay: AtheNA, Ab 25 ug/ml
SSA [9] = molecular target: T6, SSA; assay: AtheNA, Ab 25 ug/ml
Scl-70 [10] = molecular target: T7, Scl-70; assay: AtheNA, Ab 25 ug/ml
Histones [11] = molecular target: T8, Histones; assay: AtheNA, Ab 25 ug/ml
Sm (Smith antigen) [12] = molecular target: T9, Sm (Smith antigen); assay: AtheNA, Ab 25 ug/ml
RNP (ribonucleoprotein) [13] = molecular target: T5, RNP (ribonucleoprotein); assay: AtheNA, Ab 12.5 ug/ml
SSA [14] = molecular target: T6, SSA; assay: AtheNA, Ab 12.5 ug/ml
Scl-70 [15] = molecular target: T7, Scl-70; assay: AtheNA, Ab 12.5 ug/ml
Histones [16] = molecular target: T8, Histones; assay: AtheNA, Ab 12.5 ug/ml
Sm (Smith antigen) [17] = molecular target: T9, Sm (Smith antigen); assay: AtheNA, Ab 12.5 ug/ml
SSA [18] = molecular target: T6, SSA; assay: AtheNA, Ab 50 ug/ml
Histones [19] = molecular target: T8, Histones; assay: AtheNA, Ab 50 ug/ml
Sm (Smith antigen) [20] = molecular target: T9, Sm (Smith antigen); assay: AtheNA, Ab 50 ug/ml
CH505w030.20D8gp120/293F = molecular target: T11, CH505w030.20D8gp120/293F; assay: ELISA
T11 construct: also called CH505w30.20 gp120

CH505.w30.12D8gp120 = molecular target: T12, CH505.w30.12D8gp120; assay: ELISA
T12 construct: also called CH505w30.12 gp120

B1: CH236 (antibody, V domains shown)
VH: QVQLVQSGAAVKRPGASVTISCRASGYTFTTYYIHWVRQAPGQRLELMGMIDPSRGRTDYAQKFQGRVTMSRDTSTSTLYMELRSLRPDDTALYYCVRNVGTEGSLLHYDYWGQGTLVTVSS
VL: EIVLTQSPATLSVSPGERVTLSCRASQSVRNNLAWYRQKRGQAPRLLIYGASTRATGIPARFSGSGSGTEFTLTISSMQSEDFAVYYCQQYNNWWTFGQGTKVEIK
notes: also called CH236_4A/293i
LogAUC (CH505w136.B18D8gp120): 3.51
LogAUC (CH505.M11D8gp120/293F): 1.43
LogAUC (CH505.TF mutant gp120 M6): 6.31
LogAUC (CH505.M7D8gp120/293F): 0
LogAUC [1]: 0
LogAUC (CH505.M21D8gp120/293F): 0
LogAUC (CH505.M5D8gp120293F): 7.27
LogAUC (CH505.M19D8gp120): 1.54
LogAUC (CH505.M10D8gp120): 6.07
LogAUC (CH505.TF mutant gp120 M8): 0
LogAUC (CH505.M9D8gp120/293F): 0
IC50 [2]: 82.2 µg/mL
AtheNA signal (RNP (ribonucleoprotein) [3]): 40 relative luminescence units
AtheNA signal (SSA [4]): 44 relative luminescence units
AtheNA signal (Scl-70 [5]): 31 relative luminescence units
AtheNA signal (Histones [6]): 154 relative luminescence units
AtheNA signal (Sm (Smith antigen) [7]): 184 relative luminescence units
LogAUC (CH505w020.14D8gp120): 6.72
LogAUC (CH0505_CON D7gp120/293i): 6.89
AtheNA signal (RNP (ribonucleoprotein) [8]): 69 relative luminescence units
AtheNA signal (SSA [9]): 224 relative luminescence units
AtheNA signal (Scl-70 [10]): 62 relative luminescence units
AtheNA signal (Histones [11]): 193 relative luminescence units
AtheNA signal (Sm (Smith antigen) [12]): 165 relative luminescence units
AtheNA signal (RNP (ribonucleoprotein) [13]): 78 relative luminescence units
AtheNA signal (SSA [14]): 185 relative luminescence units
AtheNA signal (Scl-70 [15]): 50 relative luminescence units
AtheNA signal (Histones [16]): 234 relative luminescence units
AtheNA signal (Sm (Smith antigen) [17]): 258 relative luminescence units
AtheNA signal (SSA [18]): 177 relative luminescence units
AtheNA signal (Histones [19]): 138 relative luminescence units
AtheNA signal (Sm (Smith antigen) [20]): 128 relative luminescence units
LogAUC (CH505w030.20D8gp120/293F): 6.23
LogAUC (CH505.w30.12D8gp120): 0.95

— patent publication US10450368 (DUKE UNIVERSITY, dated 2019)
